# Data as given in the supplement of paper PMC9233669.
# Variants at the floor of the assay were thinned out.
# Legend:
# biotinyl-Met-oxazolone = assay: self-aminoacylation, catalytic enhancement (BMO) (fold over background); higher = more active; k-Seq, kA / k0A0; sequences stand for … in GGGAAUGGAUCCACAUCUACGAAUUC…UUCACUGCAGACUUGACGAAGCUG
# In short: (§1)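 Each biotinyl-aminoacyl-oxazolone, at 2–1250 μM, was incubated with mutagenized RNA pools (0.43 μM) carrying a 21-nt variable region. The 50 μL reactions contained HEPES/NaCl/KCl/MgCl2/CaCl2 buffer with 5% acetonitrile at pH 6.9–7.0 and ran for 90 minutes at room temperature. After streptavidin capture, RNA was measured by qPCR in triplicate and by Illumina sequencing, and catalytic enhancement was calculated as median kA over the uncatalyzed rate from a pseudo-first-order fit of per-sequence fraction reacted.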
# biotinyl-Leu-oxazolone = assay: self-aminoacylation, catalytic enhancement (BLO) (fold over background); higher = more active; k-Seq, kA / k0A0; sequences stand for … in GGGAAUGGAUCCACAUCUACGAAUUC…UUCACUGCAGACUUGACGAAGCUG
# In short: as §1
# biotinyl-Ile-oxazolone = assay: self-aminoacylation, catalytic enhancement (BIO) (fold over background); higher = more active; k-Seq, kA / k0A0; sequences stand for … in GGGAAUGGAUCCACAUCUACGAAUUC…UUCACUGCAGACUUGACGAAGCUG
# In short: as §1
# biotinyl-Phe-oxazolone = assay: self-aminoacylation, catalytic enhancement (BFO) (fold over background); higher = more active; k-Seq, kA / k0A0; sequences stand for … in GGGAAUGGAUCCACAUCUACGAAUUC…UUCACUGCAGACUUGACGAAGCUG
# In short: as §1
# biotinyl-Val-oxazolone = assay: self-aminoacylation, catalytic enhancement (BVO) (fold over background); higher = more active; k-Seq, kA / k0A0; sequences stand for … in GGGAAUGGAUCCACAUCUACGAAUUC…UUCACUGCAGACUUGACGAAGCUG
# In short: as §1
# biotinyl-Trp-oxazolone = assay: self-aminoacylation, catalytic enhancement (BWO) (fold over background); higher = more active; k-Seq, kA / k0A0; sequences stand for … in GGGAAUGGAUCCACAUCUACGAAUUC…UUCACUGCAGACUUGACGAAGCUG
# In short: as §1
Sequence,self-aminoacylation (biotinyl-Met-oxazolone),self-aminoacylation (biotinyl-Leu-oxazolone),self-aminoacylation (biotinyl-Ile-oxazolone),self-aminoacylation (biotinyl-Phe-oxazolone),self-aminoacylation (biotinyl-Val-oxazolone),self-aminoacylation (biotinyl-Trp-oxazolone)
AUUCACCUAGGACAUAGGGUG [Fam2.2 aminoacylation ribozyme variant],3.54,4.7,2.06,18.6,2.01,3.23
CCUCACUUCCAGCAAUCGGUC [Fam1B.1 aminoacylation ribozyme variant],0.651,0.861,1.05,1.23,1.06,0.965
AUUCACCUAGGUAAGCGGGUG [Fam2.2 aminoacylation ribozyme variant],2.73,2.75,1.9,14.3,1.48,2.31
CUACUUCAAACAAUCGUUCUA [Fam1A.1 aminoacylation ribozyme variant],0.545,0.559,0.582,1.08,0.801,0.631
AGUCACCUAGGUCAUCGGGUU [Fam2.2 aminoacylation ribozyme variant],5.25,7.09,4.28,21.7,4.18,4.8
CUACUUCAAACAACCGGUCCG [Fam1A.1 aminoacylation ribozyme variant],0.703,0.962,0.993,0.643,1.01,1
AUUACCGUGGUCAUCGAGUUA [Fam2.1 aminoacylation ribozyme variant],0.946,0.897,1.09,0.524,1.02,0.691
AAGUUUCCUAAUAGUCGAAAG [Fam3.1 aminoacylation ribozyme variant],1.1,1.44,1.45,2.75,1.14,1.76
AUUACGCUGGUCAUCGAGUCA [Fam2.1 aminoacylation ribozyme variant],1.15,1,1.15,0.768,1.23,0.981
CCACACUUGAAGCAAUCGUUC [Fam1B.1 aminoacylation ribozyme variant],0.487,0.674,0.685,0.863,0.825,0.436
CCACACUUCAAGCCAUCGGUA [Fam1B.1 aminoacylation ribozyme variant],1.7,1.88,1.53,0.774,1.4,1.05
AUUCACCUGGGUCAUCGGGGG [Fam2.2 aminoacylation ribozyme variant],4.26,5.65,4.25,21.4,4.1,3.71
CUACUUCAUACAAUCGGUUUG [Fam1A.1 aminoacylation ribozyme variant],0.538,0.602,0.64,0.619,0.541,0.425
AUUCAUCAAGGUCAUCGGGUG [Fam2.2 aminoacylation ribozyme variant],9.84,10.9,5.94,74.7,5.94,10.2
AAGUUUGCUAGUAGUCCCAAG [Fam3.1 aminoacylation ribozyme variant],0.75,0.873,1.01,1.65,1.14,1.68
UAGUUUGCUAAUAGUCGCAGG [Fam3.1 aminoacylation ribozyme variant],1.2,1.31,1.72,2.23,1.34,2.22
CUUCGUCAAACAAUCGGUCUG [Fam1A.1 aminoacylation ribozyme variant],1.65,1.62,1.87,9.15,1.55,2.23
AUUCCCCUAGGUCAUCGGGUG [Fam2.2 aminoacylation ribozyme variant],24.4,32.9,14.9,196,14.9,23.2
AUUACCAGGGUCAUCGAGUGA [Fam2.1 aminoacylation ribozyme variant],4.43,5.09,3.1,17.2,3.1,5.56
CCACACUUCAGGCAAUCGGUA [Fam1B.1 aminoacylation ribozyme variant],1.43,1.23,1.24,1.97,1.33,1.04
CCACACUUCAAGCAAUCUGUC [Fam1B.1 aminoacylation ribozyme variant],0.34,0.327,0.368,0.824,0.518,0.369
CCGCAGUUCAAGCAAUCGGUC [Fam1B.1 aminoacylation ribozyme variant],1.96,1.85,1.58,5.75,1.82,6.86
CUACAUGAAACAAUCGGUCUG [Fam1A.1 aminoacylation ribozyme variant],0.868,0.721,0.828,0.716,0.803,0.772
AUUCACAAAGGUCAUCGGGUG [Fam2.2 aminoacylation ribozyme variant],9.76,12.2,5.84,84.3,5.83,8.7
UUACACCUAGGUCAUCGGGUG [Fam2.2 aminoacylation ribozyme variant],1.92,1.87,2.25,10.5,2.15,3
AAGUUUGCGAAUAGUCGAAAG [Fam3.1 aminoacylation ribozyme variant],1.17,1.11,1.05,0.796,0.733,0.83

Sequence,self-aminoacylation (biotinyl-Met-oxazolone),self-aminoacylation (biotinyl-Leu-oxazolone),self-aminoacylation (biotinyl-Ile-oxazolone),self-aminoacylation (biotinyl-Phe-oxazolone),self-aminoacylation (biotinyl-Val-oxazolone),self-aminoacylation (biotinyl-Trp-oxazolone)
AUUACCCUGGCCAUCGAGUUA [Fam2.1 aminoacylation ribozyme variant],1.26,1.28,1.38,0.675,1.12,0.729
CUACUUCAAACAAUAGGGCUG [Fam1A.1 aminoacylation ribozyme variant],0.557,0.523,0.844,0.8,0.631,0.391
AUUACCCUCGUCAUCGAGUGU [Fam2.1 aminoacylation ribozyme variant],1.88,2,1.34,1.56,1.4,1.49
AUUACCGUGGUCUUCGAGUGA [Fam2.1 aminoacylation ribozyme variant],5.14,5.05,2.96,27,3.21,6.36
AUUCACCUAGGUCAUAGGGUA [Fam2.2 aminoacylation ribozyme variant],0.923,0.856,1.21,0.412,1.16,1.67
UCACACUUCAAGCAAUCCGUC [Fam1B.1 aminoacylation ribozyme variant],0.667,0.591,0.955,1.15,1.25,1.01
AUUCACGUAGGUUAUCGGGUG [Fam2.2 aminoacylation ribozyme variant],5.38,4.91,3.34,38.9,5.09,4.68
CUACUUCAAACACUCCGUCUG [Fam1A.1 aminoacylation ribozyme variant],0.845,0.727,0.772,0.78,0.869,0.771
CCACAAUUCAAGCAAUCGGUC [Fam1B.1 aminoacylation ribozyme variant],0.936,0.973,1.17,2.8,1.16,1.69
CCACACUUCGAGCAAUCGAUC [Fam1B.1 aminoacylation ribozyme variant],0.361,0.487,0.471,0.547,0.481,0.387
CUACUUCAAACAAACGGUCUU [Fam1A.1 aminoacylation ribozyme variant],0.982,0.879,0.904,0.824,0.901,0.74
CUACUUCAUACAAUCGGUCAG [Fam1A.1 aminoacylation ribozyme variant],0.644,0.662,0.738,0.985,0.699,0.721
AUUUCCCUGGUCAUCGAGUGU [Fam2.1 aminoacylation ribozyme variant],14.9,14.6,6.35,26.8,7.71,12.4
CCACACUUCAAGCCAUAGGUC [Fam1B.1 aminoacylation ribozyme variant],0.622,0.632,0.812,0.805,0.688,0.633
CUACUUCAAACAACCGGUCUU [Fam1A.1 aminoacylation ribozyme variant],0.686,0.871,1.32,0.875,0.899,1.05
AUUUCCCUGGUCAUCGAGAGA [Fam2.1 aminoacylation ribozyme variant],0.896,1.1,1.2,1.31,1.27,0.74
AAGUAUGCCAAUAGUCGCAAG [Fam3.1 aminoacylation ribozyme variant],1.77,1.53,2.21,2.34,1.46,1.43
CUACUUAAAACAAUCGGUCUU [Fam1A.1 aminoacylation ribozyme variant],0.799,0.617,0.742,0.533,0.706,0.524
AAUACCCGGGUCAUCGAGUGA [Fam2.1 aminoacylation ribozyme variant],5.22,6.7,3.72,34.7,3.64,7.23
AAGUUUGCUAAUAGCCGCCAG [Fam3.1 aminoacylation ribozyme variant],1.1,1.03,1.52,0.63,1.45,1.21
AUACUUCAAACAAUCGGUAUG [Fam1A.1 aminoacylation ribozyme variant],0.732,0.732,0.925,3.52,0.744,2.3
GUACUCCAAACAAUCGGUCUG [Fam1A.1 aminoacylation ribozyme variant],0.967,0.944,1.06,2.05,1.04,1.84
AUCCACCUAGGUCAUCGGCUG [Fam2.2 aminoacylation ribozyme variant],1.72,2.87,1.95,9.73,2.29,2.44
AUUACCCUGGUCAUGGAGUGC [Fam2.1 aminoacylation ribozyme variant],0.858,1.24,1.05,0.89,1.17,0.556
CUAGUUCAAAUAAUCGGUCUG [Fam1A.1 aminoacylation ribozyme variant],0.872,0.879,0.901,3.78,0.793,2.87
